The source of these data is PMC3217859, “Protein phosphatase 2a (PP2A) binds within the oligomerization domain of striatin and regulates the phosphorylation and activation of the mammalian Ste20-Like kinase Mst3” (BMC Biochemistry, 2011).

What all share (experiment): co-IP; anti-HA immunoprecipitates (12CA5 with protein A-Sepharose, or F7 anti-HA-agarose when probing for Mst3 or Mst4; 1.5 h, 4°C) of lysates (1% Nonidet P-40, 0.135 M NaCl, 10% glycerol, 20 mM Tris pH 8.0) of HEK293 cells transfected with HA-striatins; endogenous partners by immunoblot, partner/HA-striatin ratio by chemilumimager against wild type; 50 mM NaF and 100 nM okadaic acid in the lysis buffer in the …
Details in all cases: partners not purified

The target of test [1] is T1, HA-tagged Δ(3-309) striatin (human, UniProt O43815 1-780, Δ(3-309)).
T1 construct: source: HEK293, transfected, in lysate; not shown: HA, N-terminal, kept
T1 sequence (looked up): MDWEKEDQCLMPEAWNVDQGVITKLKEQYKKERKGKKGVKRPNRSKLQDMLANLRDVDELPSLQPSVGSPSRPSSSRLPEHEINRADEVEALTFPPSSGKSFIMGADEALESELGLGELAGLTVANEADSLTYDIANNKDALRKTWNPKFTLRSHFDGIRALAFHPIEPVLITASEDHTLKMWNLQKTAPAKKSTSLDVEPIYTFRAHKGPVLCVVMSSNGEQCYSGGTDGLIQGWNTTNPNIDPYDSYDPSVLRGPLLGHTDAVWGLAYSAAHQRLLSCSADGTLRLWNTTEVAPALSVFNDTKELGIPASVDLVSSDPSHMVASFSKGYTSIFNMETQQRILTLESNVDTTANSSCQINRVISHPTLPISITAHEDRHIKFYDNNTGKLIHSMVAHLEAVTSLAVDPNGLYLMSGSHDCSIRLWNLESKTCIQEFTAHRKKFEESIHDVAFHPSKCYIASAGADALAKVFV

The target in test [2] is T2, HA-tagged Δ(227-309) striatin (human, UniProt O43815 1-780, Δ(227-309)).
T2 construct: source: HEK293, transfected, in lysate; not shown: HA, N-terminal, kept
T2 sequence (looked up): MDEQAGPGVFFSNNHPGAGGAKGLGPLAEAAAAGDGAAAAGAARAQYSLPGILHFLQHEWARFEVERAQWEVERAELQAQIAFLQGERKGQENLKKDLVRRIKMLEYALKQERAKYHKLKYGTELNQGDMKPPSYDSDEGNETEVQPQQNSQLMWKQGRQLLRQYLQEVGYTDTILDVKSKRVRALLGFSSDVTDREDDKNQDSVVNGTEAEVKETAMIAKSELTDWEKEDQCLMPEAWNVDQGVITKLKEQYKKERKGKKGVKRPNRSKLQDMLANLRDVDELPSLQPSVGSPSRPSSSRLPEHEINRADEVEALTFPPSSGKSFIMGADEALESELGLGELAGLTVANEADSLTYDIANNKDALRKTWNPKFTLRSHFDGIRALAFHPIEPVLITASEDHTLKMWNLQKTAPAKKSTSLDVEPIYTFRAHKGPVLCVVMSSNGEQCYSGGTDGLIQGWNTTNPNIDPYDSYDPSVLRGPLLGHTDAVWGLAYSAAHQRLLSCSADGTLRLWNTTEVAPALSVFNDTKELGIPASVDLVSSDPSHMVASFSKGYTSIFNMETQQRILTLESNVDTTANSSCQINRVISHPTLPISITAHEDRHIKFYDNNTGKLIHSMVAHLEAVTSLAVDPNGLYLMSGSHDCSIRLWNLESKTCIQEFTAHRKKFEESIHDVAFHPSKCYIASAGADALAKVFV

Test [3] has as its target T3, HA-tagged Δ(70-116) striatin (human, UniProt O43815 1-780, Δ(70-116)).
T3 construct: also called coiled-coil deletion mutant; source: HEK293, transfected, in lysate; not shown: HA, N-terminal, kept
T3 sequence (looked up): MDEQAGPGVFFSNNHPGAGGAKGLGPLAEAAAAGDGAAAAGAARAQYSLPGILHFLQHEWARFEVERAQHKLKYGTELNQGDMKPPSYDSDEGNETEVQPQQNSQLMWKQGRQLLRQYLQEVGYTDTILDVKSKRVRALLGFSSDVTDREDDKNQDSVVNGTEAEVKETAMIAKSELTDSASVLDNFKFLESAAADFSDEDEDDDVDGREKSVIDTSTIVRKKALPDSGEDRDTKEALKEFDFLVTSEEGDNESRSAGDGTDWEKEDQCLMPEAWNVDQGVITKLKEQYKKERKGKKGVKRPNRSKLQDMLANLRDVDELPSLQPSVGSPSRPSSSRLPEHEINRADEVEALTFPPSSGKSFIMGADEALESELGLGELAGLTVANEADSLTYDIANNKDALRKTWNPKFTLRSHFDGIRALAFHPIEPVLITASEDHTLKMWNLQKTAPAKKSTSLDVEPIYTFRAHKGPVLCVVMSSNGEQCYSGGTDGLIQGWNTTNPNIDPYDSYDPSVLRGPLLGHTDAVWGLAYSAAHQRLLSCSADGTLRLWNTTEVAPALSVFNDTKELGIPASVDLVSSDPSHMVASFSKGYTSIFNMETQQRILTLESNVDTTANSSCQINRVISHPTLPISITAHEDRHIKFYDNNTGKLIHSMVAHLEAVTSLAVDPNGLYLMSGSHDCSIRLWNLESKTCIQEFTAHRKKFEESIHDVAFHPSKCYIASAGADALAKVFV

B1: Mob3/phocein (natural protein, human (endogenous in HEK293), UniProt Q9Y3A3 1-225, looked up)
chain: MVMAEGTAVLRRNRPGTKAQDFYNWPDESFDEMDSTLAVQQYIQQNIRADCSNIDKILEPPEGQDEGVWKYEHLRQFCLELNGLAVKLQSECHPDTCTQMTATEQWIFLCAAHKTPKECPAIDYTRHTLDGAACLLNSNKYFPSRVSIKESSVAKLGSVCRRIYRIFSHAYFHHRQIFDEYENETFLCHRFTKFVMKYNLMSKDNLIVPILEEEVQNSVSGESEA
notes: source: endogenous, HEK293 lysate
As for B1, the “percent of the wild-type level bound” value in test [1] was ~40 % of wild-type level; in test [2], 75 % of wild-type levels; in test [3], 40 % of wild-type levels.
